Changes are numbered by the printed parent chain. Names may count otherwise.
Assays:
[1] = target: FLAG-tagged ubiquitin, P0CG47
[2] = target: T1, RLRGG-AMC, C-terminal peptide motif of Ub and ISG15 coupled to aminomethylcoumarin
T1 chain: RLRGG

[3] = target: ubiquitin-aminomethylcoumarin, P0CG47
ubiquitin-aminomethylcoumarin, P0CG47, sequence (P0CG47 whole entry, looked up): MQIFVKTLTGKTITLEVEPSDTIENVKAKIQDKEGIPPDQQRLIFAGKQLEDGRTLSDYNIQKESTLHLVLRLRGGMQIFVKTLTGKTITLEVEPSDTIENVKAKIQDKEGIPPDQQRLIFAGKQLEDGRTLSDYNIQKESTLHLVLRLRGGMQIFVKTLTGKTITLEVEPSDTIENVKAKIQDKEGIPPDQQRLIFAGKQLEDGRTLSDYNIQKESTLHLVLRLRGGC

FLAG-tagged ubiquitin, P0CG47, sequence (P0CG47 whole entry, looked up): as above

B1: EAV nsp2-3 polyprotein with N-terminal HA tag, PLP2 mutant I353R (protein)
chain: GYNPPGDGACGYRCLAFMNGATVVSAGCSSDLWCDDELAYRVFQLSPTFTVTIPGGRVCPNAKYAMICDKQHWRVKRAKGVGLCLDESCFRGRCNCQRMSGPPPAPVSAAVLDHILEAATFGNVRVVTPEGQPRPVPAPRVRPSANSSGDVKDPAPVPPVPKPRTKLATPNPTQAPIPAPRTRLQGASTQEPLASAGVASDSAPKWRVAKTVYSSAERFRTELVQRARSVGDVLVQALPLKTPAVQRYTMTLKMMRSRFSWHCDVWYPLAVIACLLPIWPSLALLLSFAIGLIPSVGNNVVLTALLVSSANYVASMDHQCEGAACLALLEEEHYYRAVRWRPITGALSLVLNLLGQVGYVARSTFDAAYVPCTVFDLCSFAILYLCRNRCWRCFGRCVRVGPATHVLGSTGQRVSKLALIDLCDHFSKPTIDVVGMATGWSGCYTGTAAMERQCASTVDPHSFDQKKAGATVYLTPPVNSGSALQCLNVMWKRPIGSTVLGEQTGAVVTAVKSISFSPPCCVSTTLPTRPGVTVVDHALYNRLTASGVDPALLRVGQGDFLKLNPGFRLIGGWIYGICYFVLVVVSTFTCLPIKCGIGTRDPFCRRVFSVPVTKTQEHCHAGMCASAEGISLDSLGLTQLQSYWIAAVTSGLVILLVCHRLAISALDLLTLASPLVLLVFPWASVGLLLACSLAGAAVKIQLLATLFVNLFFPQATLVTMGYWACVAALAVYSLMGLRVKVNVPMCVTPAHFLLLARSAGQSREQMLRVSAAAPTNSLLGVARDCYVTGTTRLYIPKEGGMVFE
density of the alpha-flag lane (remaining ubiquitin conjugates) [1]: shows a density of the alpha-flag lane that is about twice as high as that of the T312A lane

B2: EAV PLP2 domain (residues 261-392 of EAV pp1a) carrying a C-terminal HIS6 purification tag, wild-type (protein)
chain: GYNPPGDGACGYRCLAFMNGATVVSAGCSSDLWCDDELAYRVFQLSPTFTVTIPGGRVCPNAKYAMICDKQHWRVKRAKGVGLCLDESCFRGICNCQRMSGPPPAPVSAAVLDHILEAATFGNVRVVTPEGQ
kcat/KM [2]: 48 ± 8 M⁻¹ s⁻¹
kcat/KM [3]: 21000 ± 2000 M⁻¹ s⁻¹

B3: EAV PLP2 domain I353R mutant enzyme (protein)
chain: B2 chain with I93R
kcat/KM [2]: 71 ± 8 M⁻¹ s⁻¹
kcat/KM [3]: 1100 ± 100 M⁻¹ s⁻¹
kcat/KM relative to wild type [3]: the kcat/KM value for Ub-AMC of the mutant I353R is 20 times lower than that of the wild-type virus

B4: EAV nsp2-3 polyprotein with N-terminal HA tag, PLP2 mutant T312A (protein)
chain: B1 chain with T52A, R93I
density of the alpha-flag lane (remaining ubiquitin conjugates) [1]: a mutant such as T312A already shows a level of DUB-activity that leads to a significantly denser alpha-flag lane, which represents the amount of remaining ubiquitin conjugates, than that of the wild-type virus
